Test results from patent US20240400657A1 (MorphoSys, published 2024).
Positions count from the first letter of the chain named.

T1: Human FcγRIIa (1-209)-(131R)-HIS6 (human, UniProt P12318 34-209)
T1 construct: Extracellular region with C-terminal 6xHis tag; UniProt P12318 printed
T1 chain: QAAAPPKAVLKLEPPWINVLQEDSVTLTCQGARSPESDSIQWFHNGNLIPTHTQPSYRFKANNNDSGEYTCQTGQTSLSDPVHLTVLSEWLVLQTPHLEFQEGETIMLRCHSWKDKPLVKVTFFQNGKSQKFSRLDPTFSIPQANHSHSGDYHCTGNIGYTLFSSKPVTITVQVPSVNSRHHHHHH

T2: Human FcγRIIB (1-202)-HIS6 (human, UniProt P31994 43-217)
T2 construct: Extracellular region with C-terminal 6xHis tag; UniProt P31994 printed
T2 sequence: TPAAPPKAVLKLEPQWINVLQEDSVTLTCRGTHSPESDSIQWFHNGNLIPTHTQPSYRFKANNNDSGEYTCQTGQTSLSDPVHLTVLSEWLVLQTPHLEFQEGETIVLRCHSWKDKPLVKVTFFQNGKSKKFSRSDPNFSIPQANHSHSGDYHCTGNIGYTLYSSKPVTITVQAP

T3: Human FcγRIIa (1-209)-(131H)-HIS6 (human, UniProt P12318 34-209)
T3 construct: Extracellular region with C-terminal 6xHis tag; UniProt P12318 printed
T3 sequence: T1 chain with R134H

T4: cynomolgus C5aR_NT-bio peptide (cynomolgus monkey, biotin tag (position not given))
T4 construct: Chemically synthesized linear peptide (Genscript); also called cynomolgus C5aR N-terminal peptide; cynomolgus C5aR peptide
T4 peptide: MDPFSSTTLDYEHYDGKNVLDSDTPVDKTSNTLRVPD

T5: full-length human FPR1 expressed on CHO Flp-In cells (human, UniProt P21462 1-350)
T5 construct: also called fMet-Leu-Phe receptor
T5 chain: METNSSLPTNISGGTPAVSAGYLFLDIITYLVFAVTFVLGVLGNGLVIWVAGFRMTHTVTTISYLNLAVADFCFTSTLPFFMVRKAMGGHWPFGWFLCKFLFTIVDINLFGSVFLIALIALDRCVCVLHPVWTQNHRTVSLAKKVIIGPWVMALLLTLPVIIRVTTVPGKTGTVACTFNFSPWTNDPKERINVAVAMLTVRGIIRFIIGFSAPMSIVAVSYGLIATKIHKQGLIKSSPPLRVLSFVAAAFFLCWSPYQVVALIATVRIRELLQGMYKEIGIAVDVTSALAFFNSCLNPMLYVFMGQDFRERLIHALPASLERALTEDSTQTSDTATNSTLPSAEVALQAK

T6: C5aR expressed on purified human neutrophils (human, UniProt P21730 1-350)
T6 sequence (looked up): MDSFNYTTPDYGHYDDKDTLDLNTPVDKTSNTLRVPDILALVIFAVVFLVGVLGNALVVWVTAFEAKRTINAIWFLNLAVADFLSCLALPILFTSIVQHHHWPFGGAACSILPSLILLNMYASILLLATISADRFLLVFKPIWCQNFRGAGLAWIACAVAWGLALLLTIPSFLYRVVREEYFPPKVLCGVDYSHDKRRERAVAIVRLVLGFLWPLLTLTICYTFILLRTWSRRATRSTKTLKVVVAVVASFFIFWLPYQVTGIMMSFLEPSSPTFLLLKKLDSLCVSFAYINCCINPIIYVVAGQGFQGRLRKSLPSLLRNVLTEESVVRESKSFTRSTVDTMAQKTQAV

B1: MAB #2 (antibody, human IgG1, lambda)
heavy: EVQLVESGGGLVKPGGSLRLSCAASGFTFSSYAMHWVRQAPGKGLEWVGRIKSVAQGGTTDYAAHVKGRFTISRDDSKNTLYLQMNSLKTEDTAVYYCARVSHSTFDVWGQGTLVTVSSASTKGPSVFPLAPSSKSTSGGTAALGCLVKDYFPEPVTVSWNSGALTSGVHTFPAVLQSSGLYSLSSVVTVPSSSLGTQTYICNVNHKPSNTKVDKRVEPKSCDKTHTCPPCPAPEAEGAPSVFLFPPKPKDTLMISRTPEVTCVVVDVSHEDPEVKFNWYVDGVEVHNAKTKPREEQYNSTYRVVSVLTVLHQDWLNGKEYKCKVSNKALPSSIEKTISKAKGQPREPQVYTLPPSREEMTKNQVSLTCLVKGFYPSDIAVEWESNGQPENNYKTTPPVLDSDGSFFLYSKLTVDKSRWQQGNVFSCSVMHEALHNHYTQKSLSLSPGK
light: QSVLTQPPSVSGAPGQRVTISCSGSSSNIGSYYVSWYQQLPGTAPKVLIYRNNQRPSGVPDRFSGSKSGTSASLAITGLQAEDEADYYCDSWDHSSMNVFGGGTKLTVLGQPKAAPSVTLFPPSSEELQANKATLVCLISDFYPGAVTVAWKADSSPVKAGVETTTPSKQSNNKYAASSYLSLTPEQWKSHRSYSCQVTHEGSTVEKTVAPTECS
notes: lambda 1 light chain
B2: MAB #1 (antibody, human IgG1, lambda)
heavy: B1 heavy with V54K, H103F
light: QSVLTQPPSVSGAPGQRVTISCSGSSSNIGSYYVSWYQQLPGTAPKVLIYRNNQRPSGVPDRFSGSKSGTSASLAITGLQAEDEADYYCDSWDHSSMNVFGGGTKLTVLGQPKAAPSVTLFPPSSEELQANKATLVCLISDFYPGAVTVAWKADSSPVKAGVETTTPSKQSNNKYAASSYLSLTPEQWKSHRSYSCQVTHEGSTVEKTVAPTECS
notes: lambda 1 light chain, VH3-15 framework

Key:
[1] = target: T1, Human FcγRIIa (1-209)-(131R)-HIS6; assay: BLI (Octet), IgG captured on Protein A sensors, FcγR titrated
Protocol: (§1) 2.0 nm of IgGs diluted in Octet assay buffer (PBS, 0.05% (v/v) Tween-20, 0.1% (w/v) BSA) were captured on Protein A sensors (FortéBIO, Pall Life Sciences). Kinetic measurements were performed using 7 concentrations of Fc gamma receptors (2n serial dilution) in assay buffer. […] All sensorgrams were fitted using Data Analysis Software 10.0, (FortéBIO, Pall Life Sciences) to determine kₒₙ and koff rate constants, which were used to calculate KD. The raw data was fitted with a 1:1 binding model, with parameter Rₘₐₓ set to local.

[2] = target: T2, Human FcγRIIB (1-202)-HIS6; assay: as above
Protocol: as §1

[3] = target: T7, Human FcγRI (1-279)_HIS6 (human, UniProt P12314 16-280); assay: as above
T7 construct: Extracellular region with C-terminal 6xHis tag; UniProt P12314 printed
T7 sequence (P12314 other isoform, or with tags, fused parts or gaps): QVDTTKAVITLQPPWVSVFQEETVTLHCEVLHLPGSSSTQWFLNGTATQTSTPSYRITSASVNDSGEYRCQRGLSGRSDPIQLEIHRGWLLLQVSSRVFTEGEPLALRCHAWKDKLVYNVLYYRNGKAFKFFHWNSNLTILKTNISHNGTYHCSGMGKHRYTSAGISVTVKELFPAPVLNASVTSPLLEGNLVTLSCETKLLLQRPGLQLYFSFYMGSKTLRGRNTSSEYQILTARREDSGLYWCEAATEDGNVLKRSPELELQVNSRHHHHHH
Protocol: as §1

[4] = target: T3, Human FcγRIIa (1-209)-(131H)-HIS6; assay: as above
Protocol: as §1

[5] = target: T4, cynomolgus C5aR_NT-bio peptide; assay: BLI (Octet HTX), biotinylated peptide on SA sensors, IgG as analyte, 1:1 fit, apparent (bivalent); fast koff
[6] = target: T8, Human FcRn p51 [1-297]/AviHis/p14 biotinylated (human, UniProt P55899 24-298; P16213 21-119); assay: BLI (Octet HTX), biotinylated FcRn on SA sensors, IgG titrated, steady state fit, apparent KD, pH 6.0; * deviation from fit model; pH 6.0
T8 construct: Heterodimer of two polypeptides; UniProt P55899 (p51), P61769 (p14) printed
T8 sequence (P55899 other isoform, or with tags, fused parts or gaps limits assumed, chain 1 of 2): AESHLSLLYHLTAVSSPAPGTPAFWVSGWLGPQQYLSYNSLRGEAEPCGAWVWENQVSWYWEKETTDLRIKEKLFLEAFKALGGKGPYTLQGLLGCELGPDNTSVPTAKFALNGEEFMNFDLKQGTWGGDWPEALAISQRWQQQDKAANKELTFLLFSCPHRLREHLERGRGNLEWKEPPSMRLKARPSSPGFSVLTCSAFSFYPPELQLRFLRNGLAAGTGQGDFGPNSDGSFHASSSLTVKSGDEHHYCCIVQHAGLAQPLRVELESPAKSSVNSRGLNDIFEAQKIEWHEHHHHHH
T8 sequence (P16213 21-119 limits assumed, chain 2 of 2): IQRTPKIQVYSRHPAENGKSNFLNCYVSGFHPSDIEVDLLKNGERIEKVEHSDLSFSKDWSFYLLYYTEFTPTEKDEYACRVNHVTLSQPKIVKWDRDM
Description: 0.5 nm of biotinylated human, cynomolgus, mouse and rat FcRn were captured on streptavidin (SA) sensors (FortéBIO, Pall Life Sciences). […] All sensorgrams were fitted using Data Analysis Software 10.0 (FortéBIO, Pall Life Sciences) to determine the apparent affinity and the data was fitted with a steady state model.

[7] = target: T5, full-length human FPR1 expressed on CHO …; assay: FACS, CHO Flp-In cells expressing human FPR1, single IgG concentration
[8] = target: T6, C5aR expressed on purified human …; assay: cell-based or functional assay
[9] = target: cynomolgus transferrin (cynomolgus, UniProt A0A2K5UXZ0 20-695); assay: Octet based binding assay
[10] = target: rat transferrin (rat, UniProt P12346 20-698); assay: Octet based binding assay
rat transferrin, sequence (P12346 20-698 limits assumed): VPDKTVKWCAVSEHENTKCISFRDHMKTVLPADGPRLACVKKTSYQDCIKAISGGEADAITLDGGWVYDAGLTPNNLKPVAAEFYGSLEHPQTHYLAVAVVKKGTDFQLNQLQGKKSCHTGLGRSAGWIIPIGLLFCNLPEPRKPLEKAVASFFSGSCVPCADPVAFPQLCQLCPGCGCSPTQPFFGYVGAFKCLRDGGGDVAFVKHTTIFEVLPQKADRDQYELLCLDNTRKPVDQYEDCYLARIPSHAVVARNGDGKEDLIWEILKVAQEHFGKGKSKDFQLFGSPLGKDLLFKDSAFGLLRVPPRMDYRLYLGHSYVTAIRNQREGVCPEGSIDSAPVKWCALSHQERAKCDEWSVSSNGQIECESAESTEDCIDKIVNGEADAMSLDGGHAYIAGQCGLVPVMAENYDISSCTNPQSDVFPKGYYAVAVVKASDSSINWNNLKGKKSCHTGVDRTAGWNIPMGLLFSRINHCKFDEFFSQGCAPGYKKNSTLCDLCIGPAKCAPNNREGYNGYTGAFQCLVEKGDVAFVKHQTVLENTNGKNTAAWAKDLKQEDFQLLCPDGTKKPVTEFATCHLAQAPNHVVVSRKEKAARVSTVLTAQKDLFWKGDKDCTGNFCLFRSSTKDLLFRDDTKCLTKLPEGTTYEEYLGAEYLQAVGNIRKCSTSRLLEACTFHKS

[11] = target: T9, HIS6-human C5aR (D/K variant)-HV1B1-GAG (human); assay: ELISA on coated VLPs, IgG titration (N = 2)
T9 construct: the VLPs were coated for ELISA; also called huC5aR (D/K); human C5aR D/K variant on VLPs

[12] = target: T10, HIS6-human C5aR (N/N variant)-HV1B1-GAG (human); assay: ELISA on coated VLPs, IgG titration (N = 2)
T10 construct: also called huC5aR (N/N); human C5aR N/N variant on VLPs

[13] = target: T11, full-length human C5L2 expressed on CHO Flp-In cells (human, UniProt Q9P296 1-337); assay: FACS, CHO Flp-In cells expressing human C5L2, single IgG concentration
T11 construct: also called C5a anaphylatoxin chemotactic receptor 2
T11 sequence (Q9P296 whole entry): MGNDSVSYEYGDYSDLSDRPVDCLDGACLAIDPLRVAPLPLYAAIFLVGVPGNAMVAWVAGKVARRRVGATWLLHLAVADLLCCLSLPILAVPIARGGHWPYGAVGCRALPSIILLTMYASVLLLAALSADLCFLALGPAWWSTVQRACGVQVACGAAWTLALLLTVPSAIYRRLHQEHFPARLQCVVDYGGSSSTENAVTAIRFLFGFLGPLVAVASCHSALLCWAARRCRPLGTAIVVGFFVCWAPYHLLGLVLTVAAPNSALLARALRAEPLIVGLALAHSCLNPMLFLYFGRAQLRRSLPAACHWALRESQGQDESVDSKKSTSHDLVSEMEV

[14] = target: T6, C5aR expressed on purified human …; assay: FACS on purified human neutrophils, IgG titration
Protocol: Neutrophils were purified from EDTA-whole blood samples using a MACSexpress® Neutrophil Isolation Cocktail from Miltenyi Biotec. Briefly, using this kit, cells are isolated using magnetic labeling and negative magnetic separation. […] Measurements were done at the FACS Array device. FACS data were evaluated using FlowJo™, entered into GraphPad® Prism (v4.0) and fitted to the sigmoidal dose-response curve using non-linear regression to calculate the EC50.

Row | Binder | binding result [1] | binding result [2] | binding result [3] | binding result [4] | Kd [5] [nM] | koff [5] [s⁻¹] | kon [5] [M⁻¹ s⁻¹] | Kd [6] [nM] | binding result [7] | IgG concentration for 50% inhibition of CD11b upregulation, granulocytes, 15 nM human C5a [8] [nM] | IgG concentration for 50% inhibition of CD11b upregulation, granulocytes, 150 nM human C5a [8] [nM] | binding result [9] | binding result [10] | EC50 [11] [nM] | EC50 [12] [nM] | binding result [13] | EC50 [14] [nM]
1 | B1 | binds | no binding | no binding | no binding | 140 | 0.0189 | 138000 | 36 | no binding (tested: 300 nM) | 17 | 114 | no binding | no binding | 0.5 | 0.5 | no binding (tested: 300 nM) | 5.4
2 | B2 | binds | no binding | no binding | no binding | 63 | 0.0108 | 171000 | 9 | no binding (tested: 300 nM) | 12 | 42 | no binding | no binding | 0.5 | 0.5 | no binding (tested: 300 nM) | 6
